These results are taken from the supplement of paper PMC12042874.

± gives the uncertainty stated by the source.

The nature of the data set: amyloid nucleation score (Sup35N fusion, yeast selection) (log enrichment); library NNK2; higher = more nucleation; inactive = no reads after selection. An outline of the steps: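 For the nucleation score, DiMSum gave the log enrichment of output over input reads, centred on the mode score of non-aggregating sequences. Psi-negative yeast expressing Sup35N fused to peptides of 20 random codons were induced with 100 μM copper sulfate for 24 hours and grown 7 days at 30°C on medium lacking adenine and uracil. Input and output plasmid inserts were Illumina-sequenced, and sequences with under 100 input reads were excluded.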
Consider TGCWVEERTRLRLRIYDLLY, for which the amyloid nucleation score was determined as 0.004 ± 1.1.

As to TGENI, the amyloid nucleation score result is “inactive”.

TGLDIGLGWLYMYRGATLAI had an amyloid nucleation score of 0.542 ± 0.35.

In turn, TGNDFSCFPRALEMATWTTV gave an amyloid nucleation score of 0.016 ± 1.1.

As to TGRFLEVREQRRDARVEMSR, the amyloid nucleation score was determined as 0.183 ± 1.

Substance TGRITVRRGSHLSLWKSMRL registered an amyloid nucleation score of 0.697 ± 0.27.

Substance TGRLPLFLQGLDEYPASNPE yielded an amyloid nucleation score of -0.288 ± 1.1.

Regarding TGSVDSSSIV, the amyloid nucleation score stood at 0.093 ± 0.42.

In turn, THDPNLRCYFVIGTELHSRT showed an amyloid nucleation score of 0.126 ± 0.8.

Substance THFSPMGY returned an amyloid nucleation score of -0.586 ± 1.1.

In the case of THLHQD, the amyloid nucleation score was -1.55 ± 0.76.

Turning to THVLIFFMVLDLGPFKTGAD, the amyloid nucleation score is -0.441 ± 1.1.

As for THVNFW, the amyloid nucleation score result is “inactive”.

Consider THWSCSSKLFGEFGWNFVWK, for which the amyloid nucleation score is 2.89 ± 0.067.

As for THYGLMVCQTPVGRRSASCR, the amyloid nucleation score was 1.32 ± 0.28.

In turn, TIARVIFNPVLCWKVSSRV had an amyloid nucleation score of 5.52 ± 0.063.

On to TICSHKRKYNWMIGWRMSTF, for which the amyloid nucleation score came to 0.142 ± 0.45.

TICYV returned an amyloid nucleation score of -0.564 ± 0.35.

As to TIFGRENYEDVKSASEVGLS, the amyloid nucleation score was determined as 0.135 ± 0.79.

Take TIFHLRDSYINHAKLSSLHG: the amyloid nucleation score entry is “inactive”.

In turn, TIMYYVWCLFFWMCLGYGHS displayed an amyloid nucleation score of 1.53 ± 0.1.

With TIRFS, the amyloid nucleation score was -1.58 ± 0.37.

TIYPFYEKRMRY displayed an amyloid nucleation score of -0.459 ± 1.1.

In the case of TKLYNDIFHNW, the amyloid nucleation score result was “inactive”.

With TKMVCSKRMFVECVLNLF, the amyloid nucleation score is 0.221 ± 0.31.

In turn, TKPNVW displayed an amyloid nucleation score of -0.067 ± 0.8.

With TKSVVLMNSMSS, the amyloid nucleation score turned out to be 0.072 ± 1.1.

On to TKVGYLNS, for which the amyloid nucleation score entry is “inactive”.

As for TLDFCEL, the amyloid nucleation score result was “inactive”.

In turn, TLECW displayed an amyloid nucleation score of 4.1 ± 0.049.

The substance TLENQVGSMSIGGFSGGYRR displayed an amyloid nucleation score of 0.201 ± 1.

TLFGHFSYFQD had an amyloid nucleation score of -0.124 ± 0.65.

For the substance TLFQLFIYLTFKVQVVAGTT, the amyloid nucleation score turned out to be 3.92 ± 0.083.

On to TLFSVCSIHEQWPGEVMVSY, for which the amyloid nucleation score came out at 0.918 ± 0.47.

The substance TLFVKTYMSVFYIIACSSC displayed an amyloid nucleation score of -0.218 ± 0.64.

TLIAYCLL: the amyloid nucleation score was determined as 7.492 ± 0.046.

In turn, TLKEGRWEVPCLIWIWRVWS returned an amyloid nucleation score of 1.6 ± 0.36.

TLKVCSVLIYLYWN showed an amyloid nucleation score of -1.34 ± 0.75.

In the case of TLLLTWQY, the amyloid nucleation score amounted to 4.46 ± 0.067.

The substance TLLNAYNNTLVWIWFVSMPV returned an amyloid nucleation score of 5.46 ± 0.081.

The substance TLQCDVNTVLILHVYTTYKS had an amyloid nucleation score of 1.13 ± 0.24.

Take TLQLSSADPGLNAFSDVYRV: the amyloid nucleation score was -0.627 ± 1.1.

For the substance TLRIGDFPWISWSEGVWVGG, the amyloid nucleation score came out at 0.244 ± 0.65.

With TLTLCTSSLDC, the amyloid nucleation score is 1.1 ± 0.61.

For TLTYYPFMRYAFTVSLWFLF, the amyloid nucleation score was -1.83 ± 1.1.

In the case of TLVHNFGCSLGHLKFRQNMW, the amyloid nucleation score was -0.33 ± 1.1.

In the case of TLYVVYLDEICYLLFKVSYC, the amyloid nucleation score is 1.2 ± 0.66.

Consider TMCWPMILK, for which the amyloid nucleation score is -0.072 ± 0.27.

TMFGPH gave an amyloid nucleation score of 0.775 ± 0.74.

TMFTFIAANSRWLNAKIPWY came in with an amyloid nucleation score of 0.157 ± 0.25.

On to TMGNHFVFVS, for which the amyloid nucleation score result is “inactive”.

For TMSGCSLLCWEYNASQDLSN, the amyloid nucleation score is -0.071 ± 0.62.

In the case of TNGCALRSLNWLIVS, the amyloid nucleation score was -0.44 ± 0.31.

On to TNGRCVELVMMYKYSLFVGD, for which the amyloid nucleation score was determined as 1.05 ± 0.61.

The substance TNMIMLFIRMGLRHGDKWAW registered an amyloid nucleation score of 2.54 ± 0.19.

The substance TNMPRWECSHGGRECGKGPA had an amyloid nucleation score of 1.19 ± 0.18.

As for TNRGCSMKRRKSINPRILGM, the amyloid nucleation score entry was “inactive”.

TNRRILSFGVNL displayed an amyloid nucleation score of -0.427 ± 0.78.

As for TNVLYMLWTFKVDERY, the amyloid nucleation score stood at 5.964 ± 0.049.

For the substance TPNIGSSRVVMLSLQLLN, the amyloid nucleation score came to 6.955 ± 0.054.

TQFFFDFFE came in with an amyloid nucleation score of 0.432 ± 0.4.

As to TQWSFGGYQRVGGLVVHAKR, the amyloid nucleation score came out at 3.03 ± 0.17.

Regarding TQYFYIMLQ, the amyloid nucleation score is 5.16 ± 0.071.

TRAHSED displayed an amyloid nucleation score of 0.49 ± 0.32.

In turn, TRFTYCFVVRNLVTRNRPIS registered an amyloid nucleation score of -0.646 ± 0.22.

Substance TRMCGMGTQGGLSRF registered an amyloid nucleation score of 0.257 ± 0.65.

For TRPVNLDLIFISSG, the amyloid nucleation score came out at 2.92 ± 0.098.

On to TRTGCDMGRRLVCS, for which the amyloid nucleation score is 0.171 ± 0.35.

For the substance TRWLGGISMGNSVFVLIRTL, the amyloid nucleation score was determined as 0.416 ± 0.51.

TSARRQLDDQRAWPEMAN came in with an amyloid nucleation score of 0.239 ± 0.62.

As to TSCGCTW, the amyloid nucleation score is 0.092 ± 1.1.

As to TSDITAVFNSFLKFR, the amyloid nucleation score is -0.744 ± 0.74.

Regarding TSGMYMCFLMLLVFCQLLNG, the amyloid nucleation score was -1.21 ± 0.44.

TSGPLFAPPC came in with an amyloid nucleation score of 0.402 ± 0.66.

TSGRLR returned an amyloid nucleation score of 1.67 ± 0.38.

TSGVTWQLACSVK gave an amyloid nucleation score of 4.2 ± 0.095.

As for TSHVGL, the amyloid nucleation score was -1.39 ± 0.49.

TSKFSLRVFDLFSIYGYGHT returned an amyloid nucleation score of -0.125 ± 0.45.

Substance TSLKYSVENTVASPVDRTWL showed an amyloid nucleation score of -0.055 ± 1.1.

For the substance TSPNFLSRLQVRYYRIRVSL, the amyloid nucleation score was -0.026 ± 0.35.

Substance TSRDFYRNAGIARFAYYNSP registered an amyloid nucleation score of -1.15 ± 0.23.

Turning to TSRDSRAL, the amyloid nucleation score was -0.742 ± 1.1.

For TSSQTHSR, the amyloid nucleation score was -0.03 ± 0.63.

TSSTSRVDRACPGDSWPDID registered an amyloid nucleation score of -0.068 ± 0.42.

For the substance TSVLA, the amyloid nucleation score is -1 ± 1.1.

Consider TSVVNLNRMAFKTKFLQNTI, for which the amyloid nucleation score was -1.1 ± 1.1.

For the substance TSYTLDYCGISMLKYFNSVD, the amyloid nucleation score stood at 7.188 ± 0.062.

Regarding TTFTIWAYMVAHQYLEIGCI, the amyloid nucleation score result is “inactive”.

Regarding TTGRKFMMIVTGGCGESGRF, the amyloid nucleation score was -0.77 ± 0.42.

Take TTIFGNSATLDGIPHIIKRP: the amyloid nucleation score was -0.268 ± 0.79.

As for TTLITVSVT, the amyloid nucleation score entry was “inactive”.

Consider TTSRLRWKRSHHKW, for which the amyloid nucleation score was 1.4 ± 0.29.

On to TTVERWVVFRKVQMRYRIRL, for which the amyloid nucleation score is 5.396 ± 0.049.

TVATRHYNLNGQSWKKWAQ registered an amyloid nucleation score of 0.059 ± 0.23.

As to TVGVCGTLPGSASRHVYFRE, the amyloid nucleation score was determined as 0.286 ± 0.24.

For TVHDYFDVQECVIDQCKGLP, the amyloid nucleation score was determined as 0.654 ± 0.57.

Turning to TVLVSRFDIIRHRCPTELKR, the amyloid nucleation score was 0.153 ± 0.8.

Substance TVNLGSYSEMRFLLLQEQAS came in with an amyloid nucleation score of -0.747 ± 0.63.

The substance TVREKDYIEDFGVIWRKGIY displayed an amyloid nucleation score of 0.791 ± 0.81.

Substance TVRVGAIVNSTHLVGTNSAF came in with an amyloid nucleation score of -0.314 ± 0.34.

TVVVWA displayed an amyloid nucleation score of 0.19 ± 0.31.

The substance TVYGHRVGGRSFVL gave an amyloid nucleation score of 0.295 ± 0.28.

Substance TVYYNQLSD yielded an amyloid nucleation score of -0.982 ± 0.76.

As to TWHKFVSCDCGLH, the amyloid nucleation score turned out to be 0.677 ± 0.47.

TWNLMNKVYIVPGLDPDTRS displayed an amyloid nucleation score of 7.225 ± 0.055.

TWQEAHNSQLGGFSIPEKN yielded an amyloid nucleation score of 0.155 ± 1.1.

For the substance TYADW, the amyloid nucleation score turned out to be 0.902 ± 0.3.

TYCHYVADFLPLFRFRISGG yielded an amyloid nucleation score of 3.1 ± 0.065.

In turn, TYFAEIMNTPLRPSARHEAR had an amyloid nucleation score of 1.72 ± 0.33.

Substance TYGCLFDSSIMSFQLSLDNF displayed an amyloid nucleation score of -0.28 ± 0.49.

For TYIRSVYDAFAC, the amyloid nucleation score entry was “inactive”.

As to TYKFLSVFIDEFGQDFIMIW, the amyloid nucleation score was -1.11 ± 0.43.

TYLGNLYIMRFRAVLREPLV: the amyloid nucleation score amounted to 0.077 ± 0.8.

Substance TYMCQYDSLLTKTMINNRRG gave an amyloid nucleation score of -0.611 ± 0.61.

TYMDNFFVSCGMLKQVYASV showed an amyloid nucleation score of -0.223 ± 0.16.

With TYRIGYMNQCTSR, the amyloid nucleation score is -0.215 ± 0.35.

The substance TYYKRN displayed an amyloid nucleation score of -0.4 ± 0.34.

Turning to VACVAHNTHYELTQQSYIYY, the amyloid nucleation score was determined as 5.609 ± 0.046.

Turning to VAIGLLVEGGFFIHRNICLW, the amyloid nucleation score was -1.36 ± 0.62.

As for VAILIMHCGAGSCRQMLMDS, the amyloid nucleation score came out at 0.305 ± 0.45.

Consider VALFS, for which the amyloid nucleation score was -0.029 ± 0.8.

In the case of VALRFTIMDCRIYLYSLNVF, the amyloid nucleation score worked out at 0.125 ± 0.79.

In turn, VAPTETRVDPIPSVGPVPGA yielded an amyloid nucleation score of 1.66 ± 0.34.

The substance VARFILHCY registered an amyloid nucleation score of -0.492 ± 0.28.

In the case of VASYAIGSFYADVACVEPRY, the amyloid nucleation score was determined as 0.835 ± 0.43.

With VAVFLNNA, the amyloid nucleation score result was “inactive”.

For the substance VCHHSSI, the amyloid nucleation score entry is “inactive”.

VCIMSRYKLQLLKNSNGITH showed an amyloid nucleation score of 2.53 ± 0.16.

Substance VCIRVRRDRKVMWDWSV came in with an amyloid nucleation score of 1.5 ± 0.24.

Substance VCRPRTTNIGAWRRFRFLFW gave an amyloid nucleation score of -0.601 ± 0.41.

The substance VCVFMDFHLYMMSARQSTKD registered an amyloid nucleation score of 7.894 ± 0.042.

VCYKIVKTSYNSFWDF: the amyloid nucleation score came to 4.39 ± 0.1.

With VCYMGTRCGWNSRARVFWGS, the amyloid nucleation score worked out at 2.69 ± 0.11.

Substance VCYMLRNFCDVQHKK gave an amyloid nucleation score of 0.1 ± 0.63.

The substance VDCTEV showed an amyloid nucleation score of 1.26 ± 0.26.

The substance VDFCVDVLFC registered an amyloid nucleation score of -1.06 ± 1.1.

VDGVSLSGEFFNTIVNNFCI returned an amyloid nucleation score of 6.08 ± 0.062.

Consider VDLSLTHYCARSNYLGGPSF, for which the amyloid nucleation score was 3.17 ± 0.076.

For VDNIVHMWDRNWSPGRYMDR, the amyloid nucleation score is -0.679 ± 0.44.

For VDNNVGSWPLWP, the amyloid nucleation score is -0.08 ± 1.

Substance VDNSLVNMLTAMGWSGFMHT gave an amyloid nucleation score of 0.255 ± 0.49.

For VDPHFFIRLFLEYHNVMSWY, the amyloid nucleation score entry is “inactive”.
